Source: US20260265359A1
Where two headings read alike, the source gives them in different places. Values belong to the substance of their own block, whether it stands above or below them.

Legend:
[1] = target: T1, recombinant human PIGF (human) (UniProt P49763); assay: SPR Biacore, 25 C; test antibody captured by anti-human IgG (Fc) on CM5 chip, target protein as analyte; 1:1 model
T1 sequence (looked up): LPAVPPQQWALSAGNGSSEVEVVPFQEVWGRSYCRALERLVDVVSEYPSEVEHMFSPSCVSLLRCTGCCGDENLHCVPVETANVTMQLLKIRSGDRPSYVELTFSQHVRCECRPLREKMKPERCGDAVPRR

[2] = target: T2, recombinant human VEGF-B167 (human) (UniProt P49765); assay: as above
T2 sequence (looked up): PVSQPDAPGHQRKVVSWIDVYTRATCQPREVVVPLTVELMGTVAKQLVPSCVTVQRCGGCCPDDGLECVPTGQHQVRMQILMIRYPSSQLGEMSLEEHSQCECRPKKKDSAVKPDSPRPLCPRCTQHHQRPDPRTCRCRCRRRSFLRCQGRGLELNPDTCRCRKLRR

[3] = target: recombinant human VEGF-A165 (human) (UniProt P15692); assay: as above
recombinant human VEGF-A165 (human), sequence (P15692 other isoform, or with tags, fused parts or gaps limits assumed): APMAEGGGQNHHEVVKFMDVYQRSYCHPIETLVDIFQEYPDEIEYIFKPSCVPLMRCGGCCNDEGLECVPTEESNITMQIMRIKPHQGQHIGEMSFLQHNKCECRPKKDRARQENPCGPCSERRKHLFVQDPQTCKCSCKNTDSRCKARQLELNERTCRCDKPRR

[4] = target: recombinant human VEGF-A165 (human) (UniProt P15692)
[5] = target: recombinant human VEGF-A165 (human) (UniProt P15692); remark: listed apart in the source
[6] = target: recombinant human VEGF-A165 (human) (UniProt P15692); assay: ELISA on plate-coated recombinant human VEGF-A165; anti-human IgG1-Fc-HRP, OD450
[7] = target: recombinant human VEGF-A165 (human) (UniProt P15692); remark: listed apart in the source
[8] = target: T2, recombinant human VEGF-B167 (human); assay: ELISA on plate-coated recombinant human VEGF-B167; anti-human IgG1-Fc-HRP, OD450
[9] = target: T1, recombinant human PIGF (human); assay: SPR Biacore, 25 C; test antibody captured by anti-human IgG (Fc) on CM5 chip, target protein as analyte; 1:1 model; remark: listed apart in the source
[10] = target: T2, recombinant human VEGF-B167 (human); assay: as above; remark: listed apart in the source
[11] = target: recombinant human VEGF-A165 (human) (UniProt P15692); assay: as above; remark: listed apart in the source
[12] = target: T1, recombinant human PIGF (human); assay: ELISA on plate-coated recombinant human PIGF; anti-human IgG1-Fc-HRP, OD450
[13] = target: T1, recombinant human PIGF (human); assay: as above; remark: listed apart in the source
[14] = target: recombinant human Ang-2 (human) (UniProt O15123); assay: ELISA on plate-coated recombinant human Ang-2; anti-human IgG1-Fc-HRP, OD450
recombinant human Ang-2 (human), sequence (O15123 19-496 limits assumed): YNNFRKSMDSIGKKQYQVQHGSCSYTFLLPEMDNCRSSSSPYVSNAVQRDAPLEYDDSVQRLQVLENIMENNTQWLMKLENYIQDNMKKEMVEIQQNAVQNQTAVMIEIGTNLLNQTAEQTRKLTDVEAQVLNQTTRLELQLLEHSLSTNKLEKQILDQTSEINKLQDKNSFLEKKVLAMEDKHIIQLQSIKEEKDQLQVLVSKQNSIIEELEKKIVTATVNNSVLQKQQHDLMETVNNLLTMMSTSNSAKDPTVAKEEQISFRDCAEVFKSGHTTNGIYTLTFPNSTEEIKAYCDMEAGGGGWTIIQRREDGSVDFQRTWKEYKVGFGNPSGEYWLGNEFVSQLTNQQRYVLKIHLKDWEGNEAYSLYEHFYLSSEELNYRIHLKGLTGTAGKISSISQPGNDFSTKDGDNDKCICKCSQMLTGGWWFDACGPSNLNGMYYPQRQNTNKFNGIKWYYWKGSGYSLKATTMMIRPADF

[15] = target: human IL-6R overexpressed on engineered CHO-S cells (human) (UniProt P08887); assay: FACS competition: antibody with biotinylated human IL-6 and CHO-S cells overexpressing human IL-6R; blocked: IL-6 binding to IL-6R
human IL-6R overexpressed on engineered CHO-S cells (human), sequence (P08887 20-468, change not shown): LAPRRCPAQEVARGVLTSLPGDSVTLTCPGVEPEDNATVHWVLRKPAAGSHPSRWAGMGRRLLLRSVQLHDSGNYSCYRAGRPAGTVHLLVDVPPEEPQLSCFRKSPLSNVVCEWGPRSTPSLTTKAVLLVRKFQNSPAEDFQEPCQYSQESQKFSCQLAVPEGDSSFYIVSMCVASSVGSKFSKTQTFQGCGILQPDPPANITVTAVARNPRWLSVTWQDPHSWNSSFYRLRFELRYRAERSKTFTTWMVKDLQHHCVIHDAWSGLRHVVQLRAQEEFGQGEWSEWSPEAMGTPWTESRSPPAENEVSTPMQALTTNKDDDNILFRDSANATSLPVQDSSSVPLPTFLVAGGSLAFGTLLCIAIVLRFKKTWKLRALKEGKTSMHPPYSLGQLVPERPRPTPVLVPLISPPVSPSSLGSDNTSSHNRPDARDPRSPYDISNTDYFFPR

Conbercept (Fc fusion), sequence (chain): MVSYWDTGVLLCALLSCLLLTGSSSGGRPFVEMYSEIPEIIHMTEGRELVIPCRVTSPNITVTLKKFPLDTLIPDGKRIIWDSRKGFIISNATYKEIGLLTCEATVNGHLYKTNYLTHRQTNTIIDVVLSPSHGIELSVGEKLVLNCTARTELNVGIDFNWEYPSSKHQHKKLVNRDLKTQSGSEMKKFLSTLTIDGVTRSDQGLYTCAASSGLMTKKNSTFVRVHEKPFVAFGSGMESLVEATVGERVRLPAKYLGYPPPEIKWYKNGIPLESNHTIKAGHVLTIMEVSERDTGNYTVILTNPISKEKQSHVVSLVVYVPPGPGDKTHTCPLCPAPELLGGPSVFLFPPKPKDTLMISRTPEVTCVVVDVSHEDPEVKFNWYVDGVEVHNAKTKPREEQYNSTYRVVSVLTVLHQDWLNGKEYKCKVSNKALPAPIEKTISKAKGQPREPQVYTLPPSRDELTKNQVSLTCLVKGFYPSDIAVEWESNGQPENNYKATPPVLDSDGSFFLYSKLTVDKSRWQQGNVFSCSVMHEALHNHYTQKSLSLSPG
Aflibercept (Fc fusion), sequence (chain): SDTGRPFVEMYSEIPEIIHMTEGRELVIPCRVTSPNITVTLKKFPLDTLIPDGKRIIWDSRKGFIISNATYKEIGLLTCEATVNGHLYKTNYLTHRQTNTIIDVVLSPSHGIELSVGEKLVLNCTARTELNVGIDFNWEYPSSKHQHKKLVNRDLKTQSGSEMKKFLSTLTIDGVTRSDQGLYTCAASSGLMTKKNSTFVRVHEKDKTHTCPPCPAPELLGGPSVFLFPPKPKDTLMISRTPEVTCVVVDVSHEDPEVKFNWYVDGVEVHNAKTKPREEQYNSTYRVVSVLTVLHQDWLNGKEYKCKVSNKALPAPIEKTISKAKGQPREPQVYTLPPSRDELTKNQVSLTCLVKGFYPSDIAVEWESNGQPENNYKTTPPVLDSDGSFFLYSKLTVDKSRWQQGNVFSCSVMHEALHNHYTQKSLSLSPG

Kd [1]: 0.148 nM | Kd [2]: 1.85 nM | Kd [3]: 0.00257 nM | IC50, inhibition of VEGF-A165-stimulated VEGFR-2 NF-AT luciferase reporter (HEK-293), luminescence [4]: 0.326 nM | IC50, inhibition of VEGF-A165-stimulated VEGFR-2 NF-AT luciferase reporter (HEK-293), luminescence [5]: 0.606 nM | EC50 [6]: 0.008 nM | IC50, inhibition of VEGF-A165-stimulated VEGFR-2 NF-AT luciferase reporter (HEK-293), luminescence [7]: 0.595 nM | EC50 [8]: 0.076 nM | Kd [9]: 0.106 nM | Kd [10]: 1.37 nM | Kd [11]: 0.00344 nM | EC50 [12]: 0.012 nM
Substance: Aflibercept (Fc fusion)

EC50 [6]: 0.078 nM | EC50 [8]: 0.009 nM | EC50 [12]: 0.089 nM | EC50 [13]: 0.103 nM
Substance: Conbercept (Fc fusion)

EC50 [14]: 8.32 nM
Substance: Tie-2-Fc (Fc fusion)

IC50 [15]: 0.524 nM
Substance: Vobarilizumab-Fc (Fc fusion)
